Publication PMC8631942 (2021)
Positions count from the first letter of the chain named.

B1: His10-BTLA^ICD BTLA^FFFY, pre-phosphorylated (domain or fragment)
chain: DTAGREINLVDAHLKSEQTEASTRQNSQVLLSETGIFDNDPDLCFRMQEGSEVFSNPCLEENKPGIVFASLNHSVIGPNSRLARNVKEAPTEYASICVRS
modifications: pre-phosphorylated with Fyn; lone tyrosine (Y282) in the ITSM
B2: His10-BTLA^ICD BTLA^FFYF, pre-phosphorylated (domain or fragment)
chain: B1 chain with F68Y, Y93F
modifications: pre-phosphorylated with Fyn; lone tyrosine (Y257) in the ITIM
B3: SNAP-SHP1-cSH2 (domain or fragment)
chain: WYHGHMSGGQAETLLQAKGEPWTFLVRESLSQPGDFVLSVLSDQPKAGPGSPLRVTHIKVMCEGGRYTVGGLETFDSLTDLVEHFKKTGIEEASGAFVYLRQPY

Key:
SNAP-SHP2-cSH2 = experiment: SPR
[1] = target: B2; experiment: SPR

| Binder | Kd (SNAP-SHP2-cSH2) [nM] | Kd [1] [nM] |
| --- | --- | --- |
| B1 | 1100 | – |
| B2 | 1100 | – |
| B3 | – | 1800 |
